In the supplement of paper PMC9170038:

Test system: MS2 coat protein
Assay: apparent KD of MS2 coat protein; designed switch direction (-1 OFF switch, 1 ON switch): -1; higher = weaker reporter binding
How it was run: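 RNA switches sharing common flanks were transcribed by stalled E. coli RNA polymerase on Illumina chips. A doubling series of SNAP-549-labelled MS2 coat protein, from 0.7 or 1.5 nM to 3 µM, was applied in Tris-HCl pH 7.5 buffer with KCl, MgCl2, BSA, DTT, tRNA and Tween-20. Each step lasted 0.8–1.5 h at the bottom of the series and 10–20 min at the top. Normalised cluster fluorescence was curve-fitted, giving apparent KD as the per-design median over clusters.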

[1] = Eterna round: R95, input ligand: microRNA oligo, concentration not stated
[2] = input ligand: microRNA oligo, concentration not stated
[3] = Eterna round: R95, input ligand: FMN 200 uM
[4] = Eterna round: R95, input ligand: none

Sequence	apparent KD of MS2 coat protein [1]	apparent KD of MS2 coat protein (input ligand: FMN 200 uM)	apparent KD of MS2 coat protein (input ligand: none)	other results
CUUCGACAUGAGGAUCACCCAUGUCAGGAUAUUGUUUAUCUGGUGUUGUCCAGAUAUGCAAGAAGGGAUGUGUG [LRO-Excl1-04] (puzzle: Exclusion 1)	33.8 nM	–	–	–
CUUCGUAUAGAGGAUAUAGGUUACCUCGGUAUCCUAGAAGGCUGUACAUGAGGAUCACCCAUGUACUUCAGAUC [Exclusion 6 - B - 13:b] (puzzle: Exclusion 6)	12.7 nM	–	–	–
CUUCGUUGCAAGGAUAUGUGAACGAAGAGGGAUACAGAAGGUGCUACAUGAGGAUCACCCAUGUGGGUUGAUUU [Eternabot (L1) Solution 48] (Eterna round: R97, puzzle: Exclusion 6)	–	363 nM	226 nM	–
CUUCUCUCAUGGAAUCCUGACAUGAGGAUCACCCAUGUUGCUGAGGAUAUCCAGCGCUACGGCGCGGAGAAGGCGGCUCUUAAA [Enties] (Eterna round: R96, puzzle: Exclusion NG 3)	–	12.9 nM	17.2 nM	apparent KD of MS2 coat protein [2]: 10 nM
CUUGUACAUGAGGAUCACCCAUGUUAGGAUAUCUCGCCGUCGGCUUGCCGACGGUAUUAGAGAAGGGACAAGGG [JL Tixe mod 7] (puzzle: Exclusion 1)	18.6 nM	–	–	–
CUUGUUUAUGUAGGAUAUACAUGAGGAUCACCCAUAGAAGGACAUGAGGAUCACCCAUGUAUUGCGGUCUGCGUUCAGAUCGCA [salish99_ExNG1_r04_101] (Eterna round: R96, puzzle: Exclusion NG 1)	–	337 nM	335 nM	apparent KD of MS2 coat protein [2]: 298 nM
CUUGUUUAUGUAGGAUAUGCCUGGCGUGCCUUUGCAGAAGGACAUGAGGAUCACCCAUGUAACAUGAGGCUCACCCAUGUCGCC [salish99_ExNG1_r04_107] (Eterna round: R96, puzzle: Exclusion NG 1)	–	142 nM	153 nM	apparent KD of MS2 coat protein [2]: 94.8 nM
CUUGUUUAUGUAGGAUAUGCCUGGCGUGCCUUUGCAGAAGGACAUGAGGAUCACCCAUGUAUUGCGGUCUGCGUUCAGAUCGCC [salish99_ExNG1_r4_042] (Eterna round: R96, puzzle: Exclusion NG 1)	–	34.9 nM	22 nM	apparent KD of MS2 coat protein [2]: 18.9 nM
CUUGUUUAUGUGAGGAUAUACUGUUAGUAUAGUUUGUAGAAGGUACAUGAGGAUCACCCAUGUUUAUUACUCUU [JR_BME4_Sub046] (puzzle: Brourd's mod of Exclusion 4)	11.9 nM	–	–	–
CUUUAGACAGGAUAUACUUCCGUGGUCGUAGAGUUACACAGACAUGAGGAUCACCCAUGUAGAAGGGUCAAGCU [Eternabot (L2) Solution 94] (Eterna round: R97, puzzle: Exclusion 2)	–	76.2 nM	84.7 nM	–
CUUUGACAUGAGGAUCACCCAUGUGAGGAUAUGAUGCGAUCGUCGAAAGACGAUAGCAUCAGAAGGCACAUAUG [Fiskers Ex 1 - 7] (puzzle: Exclusion 1)	92.6 nM	–	–	–
CUUUUAAAGCAACAUCAGCACAUGAGGAUCACCCAUGUGGCGUCCCGACUGUGCACGAUUGCUCGUCUUGACUGUAU [Eternabot (L1) Solution 25] (Eterna round: R97, puzzle: Sensor, turn-off variant 1)	–	179 nM	185 nM	–
CUUUUGGCAGGAUAUGCUUUUUUUGACAUGAGGAUCACCCAUGUGAUGCAGUUUGGGUUUGCAGAAGGGCCUGAGU [JR_E5_Sub035] (puzzle: Exclusion 5)	101 nM	–	–	–
CUUUUGUGAGGAUAUCAGGUGUGCUAGCGUACUGGUACAUCUGAGAAGGCACAUGAGGAUCACCCAUGUUCCUU [JL-ex4-3.18 Brourd mod] (puzzle: Exclusion 4)	13.5 nM	–	–	–
CUUUUGUGAGGAUAUCAGUAGUAAAAAAAUAAAAUUACUACUGAGAAGGUACAUGAGGAUCACCCAUGUUCCUC [salish99_ex4_r3_031] (puzzle: Exclusion 4)	15.1 nM	–	–	–
CUUUUGUGAGGAUAUCAGUAGUAAAAAAUUAAAAUUACUACUGAGAAGGCACAUGAGGAUCACCCAUGUUCCUC [salish99_ex4_r3_021] (puzzle: Exclusion 4)	37.7 nM	–	–	–
CUUUUGUGAGGAUAUCAGUAGUAAUACAAUAGUAUUACUACUGAGAAGGUACAUGAGGAUCACCCAUGUUCCUC [Ex4 344 Omei mod 4] (puzzle: Exclusion 4)	17.9 nM	–	–	–
CUUUUGUGAGGAUAUUAGUAGUAAAUAAUUAAAAUUACUACUGAGAAGGCACAUGAGGAUCACCCAUGUUCCUC [salish99_ex4_r3_056] (Eterna round: R96, puzzle: Exclusion 4)	–	489 nM	37.4 nM	apparent KD of MS2 coat protein [2]: 33.2 nM
CUUUUGUGAGGAUAUUAGUAGUAAAUAAUUAAAAUUACUACUGAGAAGGCACAUGAGGAUCACCCAUGUUCCUC [salish99_ex4_r3_056] (puzzle: Exclusion 4)	35.2 nM	–	–	–
CUUUUGUGAGGAUAUUAGUAGUAAAUGAAUAAAAUUAUUACUGAGAAGGCACAUGAGGAUCACCCAUGUUCCUU [Mat - Exclusion 4 - Eli Mod - D19] (Eterna round: R97, puzzle: Exclusion 4)	–	83.6 nM	14.6 nM	–
GAAAAGAUAGGAUAUACAAGAAGAAAAGAAAAGAAAAGAAAACAUGAGGAUCACCCAUGUAGAAGGAUCAAAAG [Default title] (puzzle: Exclusion 2)	13.5 nM	–	–	apparent KD of MS2 coat protein [3]: 15 nM; apparent KD of MS2 coat protein [4]: 15.5 nM
GAAAAGCAUGUGAGGAUAUGCACACCGGACCGGUGGUAGAAGGCACAUGAGGAUCACCCAUGUGACCAAGAAUA [BmEX4 A.4] (Eterna round: R97, puzzle: Brourd's mod of Exclusion 4)	–	19.7 nM	10.6 nM	–
GAAAAGGUAGGAUAUACGAAAAAAAAGUGUAGAAAAAAAACACAUGAGGAUCACCCAUGUAGAAGGACCAAAAG [salish99_ex2_r3_069] (puzzle: Exclusion 2)	34.8 nM	–	–	apparent KD of MS2 coat protein [3]: 27 nM; apparent KD of MS2 coat protein [4]: 32.6 nM
GAAAAGUGAGGAUAUGGUAAAAGAAGAAGAAGAAGAAAACUCCAGAAGGCACAUGAGGAUCACCCAUGUGAAAG [salish99_ex4_r3_008] (puzzle: Exclusion 4)	17.1 nM	–	–	apparent KD of MS2 coat protein [3]: 17 nM; apparent KD of MS2 coat protein [4]: 16.5 nM
GAAACCAGAGGAUAUGCGAAUAAAUAAAACUUUUUUUUUUAACAUGAGGAUCACCCAUGUAGAAGGCUGCAAAU [Ex2 #34] (Eterna round: R97, puzzle: Exclusion 2)	–	42.2 nM	32.7 nM	–
GAAUAGGCAGGAUAUACAUGAGGAUCACCCAUGUGCAACCGAAAGGAACGUCCGAAAGGUAGAAGGGCCUAAAC [ChP 13.04.2015 #9] (puzzle: Exclusion 3)	17.9 nM	–	–	apparent KD of MS2 coat protein [3]: 73.7 nM; apparent KD of MS2 coat protein [4]: 19.6 nM
GAAUAGGUAGGAUAUACGAAAAAAAAGGGUAGAAAAAAAACACAUGAGGAUCACCCAUGUAGAAGGACCAAAAG [salish99_ex2_r3_089] (puzzle: Exclusion 2)	31.6 nM	–	–	apparent KD of MS2 coat protein [3]: 68.6 nM; apparent KD of MS2 coat protein [4]: 29.6 nM
